Data published in patent US20050164308A1, “Beta-lactamase CD4+ T-cell epitopes” (priority 2003, published 2005).
Positions count from the first letter of the chain named. Names and notes keep the numbering of the source.

Tests used:
PBMCs = test: PBMC proliferation assay; format: cell-based, human; conditions: 26 donors
Method: The blood samples used in these experiments were the same as described above (i.e., before Example 1). The PBMCs were separated using Lymphoprep, as known in the art. The PBMCs were washed in PBS and counted using a Cell Dyn® 3700 blood analyzer (Abbott). The cell numbers and differentials were recorded. The PBMCs were resuspended to 4×10^6 cells/ml, in a solution of heat-inactivated human AB serum, RPMI 1640, pen/strep, glutamine, and 2-ME. Then, 2 mls per well were plated into 24-well plates. Two wells were used as no-enzyme controls. Then, the unmodified beta-lactamase and modified beta-lactamases were added to the wells at a concentrations of 10 ug/ml, 20 ug/ml, and 40 ug/ml. The epitope-modified beta-lactamases tested were K21A/S324A (designated as “pCD1.1”) and K21A/S324A/L149S (designated as “pCD08.3”). The K21A mutation corresponds to SEQ ID NO:10, while the S324A mutation corresponds to SEQ ID NO:48, and the L149S mutation corresponds to SEQ ID NO:84. The S324 variant is in epitope #107, while K21A is in epitope #6, and L149S is in epitope #49. […] These plates were incubated for 6 hours, the cells harvested and counted. […] SI values were calculated by dividing the average for each set of eight wells for each sample by the average CPM for the control well. The data were analyzed by creating a dataset representing the highest SI value achieved for each donor and each enzyme. […]

mouse splenocytes [1] = test: Proliferative response of splenocytes from immunized mice to BLA peptides; format: in vivo, CB6F1 mice; conditions: mice immunized i.p. 20 μg in alum, days 1, 7, 15; tested day 19
Method: (§1) In this Example, experiments conducted to test the reduced immunogenicity of pCD1.1 in vivo are described. In these experiments, CB6F1 mice were immunized intraperitoneally with 20 μg of either wild-type BLA, or the CD1.1 protein in alum per mouse, as known in the art. Mice were immunized on days 1, 7, and 15 (i.e., d=1, d=7 and d=15). Splenocytes were tested for reactivity with BLA peptides on day 19. […] This response correlates with one of the human defined epitopes.

mouse splenocytes [2] = test: Proliferative response of splenocytes from immunized mice to whole protein BLA or CD1.1; format: in vivo, CB6F1 mice; conditions: mice immunized with the labelled protein; restimulated with BLA or CD1.1
Method: as §1
Splenocytes from immunized mice were tested in vitro for their proliferative response to whole protein BLA or CD1.1. […] However, it is not intended that the present invention be limited to any particular mechanism.

[3] = tested on: BLA-specific IgG1 antibody; test: Antigen-specific ELISA on serum of thrice-immunized mice; format: in vivo, CB6F1 mice; conditions: BLA or CD1.1 as plate coating
Method: as §1
In addition, serum samples were taken from the thrice-immunized mice and an antigen-specific ELISA was performed (FIG. 16). Mice immunized with BLA produced robust levels of anti-BLA IgG1 antibody. […] ELISA assays were performed using both BLA and CD1.1 as the plate-coating reagent, with identical results.

B1: pCD1.1: epitope-modified beta-lactamase K21A/S324A (protein)
chain: TPVSEKQLAEVVANTITPLMAAQSVPGMAVAVIYQGKPHYYTFGKADIAANKPVTPQTLFELGSISKTFTGVLGGDAIARGEISLDDAVTRYWPQLTGKQWQGIRMLDLATYTAGGLPLQVPDEVTDNASLLRFYQNWQPQWKPGTTRLYANASIGLFGALAVKPSGMPYEQAMTTRVLKPLKLDHTWINVPKAEEAHYAWGYRDGKAVRVSPGMLDAQAYGVKTNVQDMANWVMANMAPENVADASLKQGIALAQSRYWRIGSMYQGLGWEMLNWPVEANTVVEGSDSKVALAPLPVAEVNPPAPPVKASWVHKTGSTGGFGAYVAFIPEKQIGIVMLANTSYPNPARVEAAYHILEALQ
- average proliferative response (SI) compared to wild-type beta-lactamase (PBMCs; 10, 20, 40 ug/ml, highest SI per donor): less proliferation
- percent of responders compared to wild-type beta-lactamase (PBMCs; responder if highest SI > 1.99): fewer donors
- splenocyte proliferative response to the peptide 107 region (mouse splenocytes [1]): no longer responded
- splenocyte proliferative response to the peptide 114 region (mouse splenocytes [1]): no longer responded
- in vitro proliferative response of immunized mouse splenocytes to whole protein (mouse splenocytes [2]): unable to respond significantly
- anti-BLA IgG1 antibody level [3]: did not produce significant levels

B2: BLA: beta-lactamase precursor (cephalosporinase) from Enterobacter cloacae, GenBank Accession No. P05364, SEQ ID NO:1 (protein, listed as Enterobacter cloacae)
chain: B1 chain with A21K, A324S
- splenocyte proliferative response to the peptide 107 region (mouse splenocytes [1]): respond strongly
- splenocyte proliferative response to the peptide 114 region (mouse splenocytes [1]): Responses were also noted
- in vitro proliferative response of immunized mouse splenocytes to whole protein (mouse splenocytes [2]): increased
- anti-BLA IgG1 antibody level [3]: robust levels
